In patent US20080279856A1, “Inhibition of Bradykinin Release” (Novo Nordisk Pharmaceuticals, Inc., priority 1999, published 2008):

Tests used:
[1] = system: hamster cheek pouch microvasculature; assay: Intravital microscopy of hamster cheek pouch microvessel permeability; assay type: in vivo, Syrian golden hamsters; conditions: topical HBP 75 μg/ml
Source text: In order to study the effect of PMN secretion products on microvessel permeability in vivo, intravital microscopy of the hamster cheek pouch microcirculation is applied. As previously described in detail (Raud & Lindbom, 1994, Immunology of the Microcirculation, Academic Press, 1994, chapter 7), the left cheek pouch of anaesthetized Syrian golden hamsters is everted and prepared for microscopic observation under continuous superfusion with a bicarbonate buffer maintaining physiological levels of temperature, pH and gas tensions. FITC-conjugated dextran (MW: 150.000) injected i.v. (250 mg/kg body weight) is used as plasma tracer to permit visualization of changes in vascular permeability to macromolecules. The microvasculature in the exposed cheek pouch is observed under low magnification in fluorescent light with a Leitz Orthoplan microscope and recorded on video. After control recordings, superfusion is stopped and 1 ml of medium containing CD18 cross-linking-evoked PMN secretion at 37° C. is topically applied to the cheek pouch. In parallel experiments, anti-CD18-treated PMN medium is not subjected to cross-linking is used.

[2] = system: endothelial cells and fibroblasts; conditions: cited from earlier work
[3] = system: HUVEC or BAEC monolayers; assay: EC intracellular free Ca2+ (fluo-3/AM, confocal microscopy); assay type: cell-based, human, bovine; conditions: HBP 75 μg/ml
Method: The Ca^2+ sensitive fluorescent probe fluo-3/AM is used for determination of changes in EC intracellular free Ca^2+. Confluent HUVEC or BAEC monolayers cultured on Biomatrix I coated filters are incubated with a Fluo-3/AM solution (3 μM in HBSS containing 2% FCS and […] HEPES), added to both the apical and basolateral surface, for 30 min at 37° C. The monolayers are washed three times and incubated with fresh HBSS in the dark for 20 min at room temperature before use to allow complete hydrolysis of the dye ester to its calcium sensitive free acid form. EC are stimulated with HBP added to the apical surface. Changes in EC Ca^2+i in response to HBP stimulation are measured through continuous registration of fluorescence intensity with a laser-scanning confocal imaging system (Insight Plus; Meridian Instruments Inc., Okemon, Mich.).

[4] = system: rat insulinoma cells; conditions: IL-1 induced; cited from earlier work
[5] = system: 125I-BPTI; assay: 125I-BPTI binding to HBP, scintillation proximity assay; parameters: species or system bovine
Method: (§1) The relative affinities of HBP and the mutants are determined by performing competition studies with […] of unlabeled BPTI.

[6] = as above; parameters: species or system bovine; conditions: competition with unlabeled BPTI; read-out: apparent IC50 of 125I-BPTI binding
Method: as §1

[7] = 3H-LPS binding to HBP, scintillation proximity assay; conditions: saturation, SPA
Method: The affinity for lipopolysaccharide (3H-LPS) is measured by scintillation proximity assay technology (SPA) as described (Linde, V., Bjørn, S., Kastrup, J. S., and Flodgaard, H., 2000, Biotechniques 28:218-222). All samples are repeated in triplicates.

[8] = system: fecal peritonitis; conditions: HBP treatment; cited from earlier work

B1: HBP: Native human heparin-binding protein, mature form with the amino acid sequence SEQ ID NO:1 (protein, listed as Homo sapiens)
chain: IVGGRKARPRQFPFLASIQNQGRHFCGGALIHARFVMTAASCFQSQNPGVSTVVLGAYDLRRRERQSRQTFSISSMSENGYDPQQNLNDLMLLQLDREANLTSSVTILPLPLQNATVEAGTRCQVAGWGSQRSGGRLSRFPRFVNVTVTPEDQCRPNNVCTGVLTRRGGICNGDGGTPLVCEGLAHGVASFSLGPCGRGPDFFTRVALFRDWIDGVLNNPGPGPA
[1]
  time of maximum leakage response after challenge: 7 to 10 min
  time to complete disappearance of leakage: ≤ 30 min
  time to visible leaky spots of fluorescent tracer: ≤ 2 min
[2]
  cell contraction: induce contraction
[3]
  change in EC cytosolic Ca2+ (fluo-3 fluorescence intensity): rapid increase in fluorescence intensity
  time to peak of Ca2+ fluorescence: ≤ 1 min
[4]
  apoptosis: rescues rat insulinoma cells from IL-1 induced apoptosis
[5]
  binding of BPTI: binds BPTI
[6]
  IC50: ~7 nM
[7]
  apparent Kd for 3H-LPS: approximately 0.7 μg/mL
[8]
  survival: rescue mice from an otherwise lethal injury
